The values below come from CN113185608A.

The experiment addresses 狂犬病毒糖蛋白(Glycoprotein，GP) (Rabies virus (RABV)). The experiment is described as follows: ELISA of HEK293T transfection supernatant. For orientation: In an ELISA, binding on a coated surface is turned into a signal by an enzyme label.

B1: 1H3+3λ1 (antibody, V domains shown)
VH: VHSQVQLVESGGGVVQPGRSLRLSCAASGFTFSSYAMHWVRQAPGKGLEWVAVISYDGNKYYADSVKGRFTISRDNSKNTLYLQMNSLRDEDTAVYYCARAPDCSGGSCSTEYFQHWGQGTLVTVSS
VL: SWAQSVLTQEPSLTVSPGGTVTLTCGSSTGAVTSGLYAYWFQQKPGQVPRTLIYNISNKQSWTPARFSGSLLGGKAALTLSGAQPEDEADYYCLLSYSRTRVFGTKLTVLGQPKAAPSVTLFP
Turning to B1, the OD (ELISA) is above 1.1 OD.

B2: 1H10+3λ5 (antibody, V domains shown)
VH: EVQLVQSGGGLVQPGGSLRLSCAASVEAFSTYWMNWVRQAPGKGLEWVANINRDGSQKYYVDSVEGRFTISRDNAKSSLYLQMNSLRADDTAVYYCMSGYDSGHWGQGSLVTVSS
VL: SQAVVTQEPSLTVSPGGTVTLTCGSSTGAVTSGLYAYWFQQKPGQVPRTLSTGAVIYNISNKQSWTPARFSGSLLGGKAALTLSGAQPEDEADYYCLLSYSRTRVFGGGTKLTVLG
Take B2: the OD (ELISA) was above 1.1 OD.

B3: 1H16+3λ7 (antibody, V domains shown)
VH: EVQLVESGGGLVQPGGSLRLSCAASGFTFSTYWMNWVRQAPGKGLEWVANINRDGSQKYYVDSVEGRFTISRDNAKSSLYLQMNSLRADDTAVYYCMSGYDSGHWGQGSLVTVSS
VL: SQAVVTQEPSLTVSPGGTVTLTCGSSTGAVTSGLYAYWTVTFQQKPGQVPRTLIYNISNKQSWTPARFSGSLLGGKAALTLSGAQPEDEADYYCLLSYSRTRVFGGGTKLTVLG
With B3, the OD (ELISA) is above 1.1 OD.

B4: 1H17+3λ8 (antibody, V domains shown)
VH: EVQLLESGGGLVQPGGSLRLSCAASGFTFSTYWMNWVRQAPGKGLEWVANRDGSQKYYVDSVEGRFTISRDNAKSSLYLQMNSLRADDTAVYYCMSGYDSGHWGQGSTVTVSS
VL: ANFMLTQEPSLTVSPGGTVTLTCGSSTGAVTSGLYAYWFQQKPGQVPRTLIYNISNKQSWTPARFSGSLLGGKAALTLSGPEDEADYYCLLSYSRTRVFGGGTKLTVLG
In turn, B4 displayed an OD (ELISA) above 1.1 OD.

B5: 1H18+3λ10 (antibody, V domains shown)
VH: EVQLVQSGGGLVQPGGSLRLSCAASGFTFSTYWMNWVRLSQTPGKGLEWVANINRDGSQKYYVDSVEGRFTISRLSDNAKSSLYLQMNSLRADDTAVYYCMSGYDSGHWGQGSTVTVSS
VL: SQTVVTQEPSLTVSPGGTVTLTCGSSTGAVTSGLYAQQKPGQVPRTLIYNISNKQSWTPARFSGSLLGGKAALTLSGAQPEDEADYYCLLSYSRTRVFGGGTKLTVLG
B5 returned an OD (ELISA) above 1.1 OD.
